# Measurements taken from patent US20150322156A1 (TOHOKU UNIVERSITY, published 2015).
# Target: human EGF receptor 1 (EGFR) as used in the SPR rate analysis (UniProt P00533 25-645, limits assumed)
# Test: SPR rate analysis of scFv
Binder,Ka [M⁻¹],koff [s⁻¹],kon [M⁻¹ s⁻¹]
"lysine-substituted single-chain antibody ""OK"" containing VH0K and VL0K (all lysine residues replaced) (scFv, Expressed in E. coli; also called VH0K VL0K) scFv: QVQLVQSGAEVAEPGASVQVSCAASGYTFTSYWMHWVRQAPGQGLEWMGNIYPGSGGTNYAEEFQNRVTMTRDTSISTAYMELSRLRSDDTAVYYCARSGGPYFFDYWGQGTLVTVSSGGGGSGGGGSGGGGSDIVMTQSPLSLPVTPGEPASISCRSSQNIVHNNGITYLEWYLQRPGQSPQLLIYQVSDRFSGVPDRFSGSGSGTDFTLTISRVEAEDVGVYYCFQGSHIPPTFGQGTEVEIERHHHHHH",7.32e+06,0.00824,60300
"lysine-substituted single-chain antibody ""HK"" containing VH1K and VL0K (H19 re-replaced with lysine) (scFv, Expressed in E. coli; also called VH1K VL0K) scFv: QVQLVQSGAEVAEPGASVKVSCAASGYTFTSYWMHWVRQAPGQGLEWMGNIYPGSGGTNYAEEFQNRVTMTRDTSISTAYMELSRLRSDDTAVYYCARSGGPYFFDYWGQGTLVTVSSGGGGSGGGGSGGGGSDIVMTQSPLSLPVTPGEPASISCRSSQNIVHNNGITYLEWYLQRPGQSPQLLIYQVSDRFSGVPDRFSGSGSGTDFTLTISRVEAEDVGVYYCFQGSHIPPTFGQGTEVEIERHHHHHH",8.82e+06,0.00805,71000

# Further lines, results first:
Ka [M⁻¹],koff [s⁻¹],kon [M⁻¹ s⁻¹],Binder
2.61e+07,0.00542,141000,"h528scFv, single-chain antibody of the humanized anti-human EGF receptor 1 (Her1) antibody 528 before lysine substitution (scFv, also called PC) scFv: QVQLVQSGAEVKKPGASVKVSCKASGYTFTSYWMHWVRQAPGQGLEWMGNIYPGSGGTNYAEKFKNRVTMTRDTSISTAYMELSRLRSDDTAVYYCARSGGPYFFDYWGQGTLVTVSSAGGGGSDIVMTQSPLSLPVTPGEPASISCRSSQNIVHNNGITYLEWYLQKPGQSPQLLIYKVSDRFSGVPDRFSGSGSGTDFTLKISRVEAEDVGVYYCFQGSHIPPTFGQGTKVEIKRAAAAEQKLISEEDLNLGGGMRGSHHHHHH"
8.34e+06,0.00853,71100,"lysine-substituted single-chain antibody ""LK"" containing VH0K and VL1K (L108 re-replaced with lysine) (scFv, Expressed in E. coli; also called VH0K VL1K) scFv: QVQLVQSGAEVAEPGASVQVSCAASGYTFTSYWMHWVRQAPGQGLEWMGNIYPGSGGTNYAEEFQNRVTMTRDTSISTAYMELSRLRSDDTAVYYCARSGGPYFFDYWGQGTLVTVSSGGGGSGGGGSGGGGSDIVMTQSPLSLPVTPGEPASISCRSSQNIVHNNGITYLEWYLQRPGQSPQLLIYQVSDRFSGVPDRFSGSGSGTDFTLTISRVEAEDVGVYYCFQGSHIPPTFGQGTKVEIERHHHHHH"
